T1: CD94 homodimer (human, UniProt Q13241 32-179, limits assumed)
T1 sequence (looked up): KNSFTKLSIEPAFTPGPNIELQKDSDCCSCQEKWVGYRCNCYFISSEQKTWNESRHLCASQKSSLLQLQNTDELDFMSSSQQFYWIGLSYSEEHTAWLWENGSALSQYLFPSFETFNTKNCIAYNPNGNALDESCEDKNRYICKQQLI


Experiments:
CD94 homodimer = target: T1, CD94 homodimer; test: SPR
Method: (§1) Kinetic binding analysis of anti-NKG2A monoclonal antibodies (mAbs) was performed by Surface Plasmon Resonance (SPR) using a Continuous Flow Microspotter (CFM, Wasatch Microfluidics, Salt Lake City, US) combined with an IBIS MX96 SPR instrument (IBIS Technologies, The Netherlands). The extracellular domains (ECDs) of human his-tagged NKG2A, NKG2C and FLAG-tagged CD94 were co-expressed using an Expi293™ expression system and purified by standard Ni-NTA chromatography followed by anti-Flag M2 affinity gel (A2220, Sigma). Binding kinetics were measured by capturing mAbs on a G-a-hu-IgG Fc SensEye® for 15 minutes using the CFM. After spotting, the SensEye® was positioned in the IBIS MX96 biosensor and immobilized mAbs were fixed by SensEye FixIt kit. Kinetic analysis was performed by applying a kinetic titration series injecting increasing concentrations of antigens from 1.6 nM to 400 nM as 2-fold dilutions. After each cycle of antigen injection, the surface was regenerated by 100 mM H₃PO₄, pH 3. Antigen association and dissociation were measured for 15 minutes. The recorded binding responses were fitted to a simple 1:1 binding model with Scrubber 2.0 software for calculation of the on-rate (kₒₙ or kₐ), off-rate (Koff or kd) and affinity (KD) constants. Binding kinetic parameters were measured as an average of three independent measuring points.
The binding affinities and kinetic parameters of the anti-NKG2A mAbs binding to NKG2A/CD94 and NKG2C/CD94 heterodimers are shown in Table 7. […] None of the mAbs bound to CD94 homodimer (data not shown).

[1] = target: T2, human NKG2A and human CD94 expressed on transiently transfected CHO-S cells (human, UniProt Q13241 1-179); test: flow cytometry, transiently transfected CHO-S cells, AF647 goat anti-human IgG secondary (MFI) [cont.), panel 23925]
T2 construct: whole, on cells; also called human NKG2A/CD94 heterodimer
Method: (§2) CHO-S cells were transiently transfected with human NKG2A and human CD94, human NKG2C and human CD94, cynomolgus NKG2A and cynomolgus CD94 or cynomolgus NKG2C and cynomolgus CD94 constructs. Mock transfected CHO-S cells were included in the assay as a negative control. Antibodies were tested for binding to the transfected cells in 3-fold dilutions from 30 μg/mL down to 0.5 ng/ml antibody, and 0 μg/mL antibody, and incubated for 30 min at 4° C. Following a washing step, the cells were incubated with a fluorescent goat anti-human IgG (H+L) secondary antibody (A-21445, Invitrogen) for 30 min at 4° C. in the dark. After a second wash, the cells were tested by high throughput flow cytometry (IQue screener, Sartorius). Data were transferred to Excel and graphs were generated using GraphPad Prism® software.

[2] = target: T3, cynomolgus NKG2A and cynomolgus CD94 expressed on transiently transfected CHO-S cells (cynomolgus, UniProt Q68VD2 1-233; Q68VD4 1-179); test: blocking of PE-conjugated HLA-E pentamer binding to transiently transfected CHO-S cells, flow cytometry (percentage binding) [panel B cNKG2A]
T3 construct: whole, on cells
Method: (§3) CHO-S cells were transiently transfected with constructs for expression of human NKG2A and human CD94, human NKG2C and human CD94, cynomolgus NKG2A and cynomolgus CD94, or cynomolgus NKG2C and cynomolgus CD94. Mock transfected CHO-S cells were included in the assay as negative control. A PE-conjugated HLA-E pentamer was tested for binding to the heterodimers in the presence of anti-human NKG2A antibodies in 3-fold serial dilutions from 10 μg/mL down to 14 ng/mL antibody, and 0 μg/mL antibody. The antibodies were allowed to bind for 30 min at 4° C. prior to the addition of the HLA-E pentamer in a 1:50 dilution. The fluorescence intensity of HLA-E binding to the transfected cells was measured by high throughput flow cytometry (IQue screener, Sartorius). Data were transferred to Excel and graphs were generated using GraphPad Prism® software.

[3] = target: T2, human NKG2A and human CD94 expressed on …; test: flow cytometry, CHO-S cells transiently transfected with NKG2A variant and CD94, AF647 goat anti-human IgG secondary (MFI) [cont.), panel 23925]
Method: (§4) Six anti-human NKG2A antibodies were tested for binding to the different heterodimers expressed. Antibodies were tested for binding to the transfected cells in 3-fold serial dilutions from 1 μg/mL antibody, and 0 μg/ml antibody, and incubated for 30 min at 4° C. Following a washing step, the cells were incubated with a fluorescent goat anti-human IgG (H+L) secondary antibody (A-21445, Invitrogen) for 30 min at 4° C. in the dark. After a second wash, the cells were tested by high throughput flow cytometry (IQue screener, Sartorius). Data were transferred to Excel and graphs were generated using GraphPad Prism® software. A reference antibody analogue and an isotype control were included for comparison.

I225M [4] = target: T4, I225M (Homo sapiens); test: as above
T4 construct: co-expressed on CHO-S cells; also called human NKG2A I225M / human CD94 heterodimer on CHO-S cells
T4 sequence (P26715 whole entry I225M): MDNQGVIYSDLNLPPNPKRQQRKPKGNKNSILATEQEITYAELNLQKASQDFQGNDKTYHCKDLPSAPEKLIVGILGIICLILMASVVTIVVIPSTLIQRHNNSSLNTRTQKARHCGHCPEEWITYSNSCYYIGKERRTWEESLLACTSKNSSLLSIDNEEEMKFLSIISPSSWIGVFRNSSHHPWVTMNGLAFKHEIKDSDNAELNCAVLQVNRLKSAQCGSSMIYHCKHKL
Method: as §4

[5] = target: T5, recombinant human NKG2C/CD94 heterodimer (extracellular domains) (human, UniProt P26717 94-231; Q13241 32-179); test: SPR (IBIS MX96), mAb captured on anti-human IgG Fc, ECD heterodimer injected, 1:1 fit
T5 construct: extracellular domain; also called HuNKG2C/huCD94; NKG2C/CD94 ECDs
T5 sequence (P26717 94-231, chain 1 of 2, one chain of several): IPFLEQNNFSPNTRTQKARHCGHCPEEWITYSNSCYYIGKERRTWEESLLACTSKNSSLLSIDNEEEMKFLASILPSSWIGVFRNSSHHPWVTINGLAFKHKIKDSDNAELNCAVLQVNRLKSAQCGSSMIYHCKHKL
Method: as §1

[6] = target: T6, recombinant human NKG2A/CD94 heterodimer (extracellular domains) (human, UniProt Q13241 32-179); test: as above
T6 construct: extracellular domain; ECDs co-expressed in Expi293, purified by Ni-NTA and anti-Flag; also called HuNKG2A/huCD94; NKG2A/CD94 ECDs
T6 sequence (chain, as listed by the source, chain 1 of 2, one chain of several): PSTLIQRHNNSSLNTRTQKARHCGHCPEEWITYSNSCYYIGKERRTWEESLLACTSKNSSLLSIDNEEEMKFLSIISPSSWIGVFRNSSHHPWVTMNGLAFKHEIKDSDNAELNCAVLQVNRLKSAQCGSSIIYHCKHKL
Method: as §1

[7] = target: T2, human NKG2A and human CD94 expressed on …; test: flow cytometry, transiently transfected CHO-S cells, AF647 goat anti-human IgG secondary (MFI) [panel 23566]
Method: as §2

[8] = target: T3, cynomolgus NKG2A and cynomolgus CD94 …; test: as above
Method: as §2

[9] = target: T2, human NKG2A and human CD94 expressed on …; test: flow cytometry, CHO-S cells transiently transfected with NKG2A variant and CD94, AF647 goat anti-human IgG secondary (MFI) [panel 23566]
Method: as §4

[10] = target: T7, cynomolgus NKG2C and cynomolgus CD94 expressed on transiently transfected CHO-S cells (cynomolgus); test: flow cytometry, transiently transfected CHO-S cells, AF647 goat anti-human IgG secondary (MFI) [panel 23686]
T7 construct: whole, on cells
Method: as §2

[11] = target: T8, human NKG2C and human CD94 expressed on transiently transfected CHO-S cells (human, UniProt P26717 1-231; Q13241 1-179); test: as above
T8 construct: whole, on cells
T8 sequence (P26717 whole entry, one chain of several): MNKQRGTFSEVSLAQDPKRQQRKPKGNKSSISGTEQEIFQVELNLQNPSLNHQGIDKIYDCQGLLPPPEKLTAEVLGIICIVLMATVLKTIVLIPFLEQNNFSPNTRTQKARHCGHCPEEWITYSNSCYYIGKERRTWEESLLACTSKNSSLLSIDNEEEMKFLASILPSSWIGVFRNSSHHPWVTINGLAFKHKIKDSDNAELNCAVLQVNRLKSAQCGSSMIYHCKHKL
Method: as §2

[12] = target: T2, human NKG2A and human CD94 expressed on …; test: as above
Method: as §2

[13] = target: T3, cynomolgus NKG2A and cynomolgus CD94 …; test: as above
Method: as §2

[14] = target: T8, human NKG2C and human CD94 expressed on …; test: flow cytometry, CHO-S cells transiently transfected with NKG2A variant and CD94, AF647 goat anti-human IgG secondary (MFI) [panel 23686]
Method: as §4

[15] = target: T2, human NKG2A and human CD94 expressed on …; test: as above
Method: as §4

I225M [16] = target: T4, I225M; test: as above
Method: as §4

[17] = target: T8, human NKG2C and human CD94 expressed on …; test: blocking of PE-conjugated HLA-E pentamer binding to transiently transfected CHO-S cells, flow cytometry (percentage binding) [cont.), panel C hNKG2C]
Method: as §3

[18] = target: T7, cynomolgus NKG2C and cynomolgus CD94 …; test: blocking of PE-conjugated HLA-E pentamer binding to transiently transfected CHO-S cells, flow cytometry (percentage binding) [cont.), panel D cNKG2C]
Method: as §3

| binding result (CD94 homodimer) | Kd [5] [nM] | koff [5] [s⁻¹] | kon [5] [M⁻¹ s⁻¹] | Kd [6] [nM] | koff [6] [s⁻¹] | kon [6] [M⁻¹ s⁻¹] | Binder | further results |
| --- | --- | --- | --- | --- | --- | --- | --- | --- |
| no binding | 68 | 0.0006 | 8800 | 2.23 | 0.00042 | 190000 | antibody 23925 (antibody, human IgG1, kappa, L234A L235A, V domains shown, Fully human IgG1-LALA (L234A/L235A), kappa) VH: EVQLVESGGGLVQPGGSLRLSCAASGFTFSSYAMNWVRQAPGKGLEWVSTISNSGGTTYYADSVKGRFTISRDNSKDTLYLQMNSLRAEDTAVYYCAKAHYYARGYFDYWGQGTLVTVSS VL: DIQMTQSPSSVSASVGDRVTITCRASQGISSWLAWYQQKSGKAPKLLIYAASSLQIGVPSRFSGSGSGTDFTLTISSLQPEDFATYYCQQANSFPYTFGQGTKLEIKR | EC50 (read off the curve) [1]: ~20 ng/mL; binding result [2]: no binding (tested: 10000 ng/ml); EC50 (read off the curve) [3]: ~4 ng/mL; EC50 (read off the curve) (I225M [4]): ~3 ng/mL |
| no binding | 98 | 0.00083 | 8500 | 2.5 | 0.0011 | 420000 | antibody 23566 (antibody, human IgG1, kappa, L234A L235A, V domains shown, Fully human IgG1-LALA (L234A/L235A), kappa; also called mAb 23566) VH: EVQLLESGGDLVQPGGSLRLSCAASGFTFDNYAMHWVRQAPGKGLEWVSTITNSGGTTYYADSVKGRFTLSRDNSKNTLYLQMNSLRAEDTAVYYCAKAHYYARGYFDFWGQGTLVTVSS VL: DIQMTQTPSSVSASVGDRVTITCRASQGISSWLAWYQQKPGKAPKLLIYAASSLQSGVPSRFSGSGSGTDFTLTISSLQPEDFATYYCQQANSFPYTFGQGTKLEIKR | EC50 (read off the curve) [7]: ~20 ng/mL; binding result [8]: no binding (tested: about 3300 ng/ml); EC50 (read off the curve) [9]: ~5 ng/mL |
| no binding | 3.9 | 0.0026 | 670000 | 0.72 | 0.00014 | 200000 | antibody 23686 (antibody, human IgG1, kappa, L234A L235A, V domains shown, Fully human IgG1-LALA (L234A/L235A), kappa) VH: EVQLVESGGGLVKPGGSLRLSCAASGFTFSSYSMNWVRQAPGKGLEWVSSISSSSSYIYYADSVKGRFTISRDNAKNSLYLQMNSLRAEDTAVYYCARDEWGLLGFDSWGQGTLVTVSS VL: EIVLTQSPATLSLSPGERATLSCRASQSISNYLAWYQQKPGQAPRLLIYDASNRATGIPARFSGSGSGTDFTLTISSLEPEDFAVYYCQQRTDWPPWTFGQGTKVEIKR | EC50 (read off the curve) [10]: ~20 ng/mL; EC50 (read off the curve) [11]: ~10 ng/mL; EC50 (read off the curve) [12]: ~30 ng/mL; EC50 (read off the curve) [13]: ~20 ng/mL; EC50 (read off the curve) [14]: ~3 ng/mL; EC50 (read off the curve) [15]: ~5 ng/mL; EC50 (read off the curve) (I225M [16]): ~7 ng/mL; IC50 (read off the curve) [17]: ~200 ng/mL; IC50 (read off the curve) [2]: ~300 ng/mL; IC50 (read off the curve) [18]: ~700 ng/mL |

Source: US20240294638A1 (LES LABORATOIRES SERVIER, published 2024)
